# Patent US20240261374A1, “PHARMACEUTICAL COMPOSITION AND KIT COMPRISING AN IMMUNOMODULATORY SUBSTANCE FOR TREATING DISEASES” (ellennbe GmbH, priority 2021, published 2024)
# Legend:
# [1] = tested on: patient suffering from multiple sclerosis; experiment: treatment of a patient: SHILD-score, relapses, fatigue; assay type: in vivo, human; settings: for subject's condition in multiple sclerosis: as indicated by the SHILD-score; for SHILD-score: multiple sclerosis
# [2] = tested on: ankylosing spondylitis (Bechterew's disease); assay type: in vivo, human; settings: Patient 11; ended more than a year before; lost their effect within half a year
# [3] = as can be seen from the examples
Molecule,"fatigue in case of multiple sclerosis [1, 3]",subject's condition in multiple sclerosis [1],SHILD-score [1],Effect of earlier treatment with biologics (patient history) [2],"relapses in case of multiple sclerosis [1, 3]"
"BDNF: recombinant human BDNF produced in Escherichia coli, R&D Systems catalogue number 248-BDB/CF; SEQ ID NO: 4 (protein, listed as Homo sapiens, human BDNF, human brain-derived neurotrophic factor) HSDPARRGELSVCDSISEWVTAADKKTAVDMSGGTVTVLEKVPVSKGQLKQYFYETKCNPMGYTKEGCRGIDKRHWNSQCRTTQSYVRALTMDSKKRIGWRFIRIDTSCVCTLTIKRGR",very effectively relieving,stabilized or even improved,decreasing,,
"Cimzia®: biologic, certolizumab pegol (antibody, chains of the INN, looked up, V domains shown, Fab' PEG (pegol)) VH: EVQLVESGGGLVQPGGSLRLSCAASGYVFTDYGMNWVRQAPGKGLEWMGWINTYIGEPIYADSVKGRFTFSLDTSKSTAYLQMNSLRAEDTAVYYCARGYRSYAMDYWGQGTLVTVSS VL: DIQMTQSPSSLSASVGDRVTITCKASQNVGTNVAWYQQKPGKAPKALIYSASFLYSGVPYRFSGSGSGTDFTLTISSLQPEDFATYYCQQYNIYPLTFGQGTKVEIK",,,,had little effect from the outset,
"IL-4: recombinant human IL-4 produced in Escherichia coli, R&D Systems catalogue number 204-IL/CF; SEQ ID NO: 3 (protein, listed as Homo sapiens, human IL-4, Interleukin 4) METGLYLETHRSERGLNLELEPRPRLEPHEPHELELEALACYSALAGLYASNPHEVALHISGLYHISLYSCYSASPILETHRLEGLNGLILEILELYSTHRLEASNSERLETHRGLGLNLYSTHRLECYSTHRGLLETHRVALTHRASPILEPHEALAALASERLYSASNTHRTHRGLLYSGLTHRPHECYSARGALAALATHRVALLEARGGLNPHETYRSERHISHISGLLYSASPTHRARGCYSLEGLYALATHRALAGLNGLNPHEHISARGHISLYSGLNLEILEARGPHELELYSARGLEASPARGASNLETRPGLYLEALAGLYLEASNSERCYSPRVALLYSGLALAASNGLNSERTHRLEGLASNPHELEGLARGLELYSTHRILEMETARGGLLYSTYRSERLYSCYSSERSER",reduction,stabilization or even improvement,decreasing,,avoiding
